Assay results as given in patent US20260232827A1 (Zymeworks, published 2026).

T1: human sodium-dependent phosphate transporter 2B (NaPi2b) (human, UniProt O95436 1-690)
T1 construct: Endogenous on tumor cell lines (IGROV-1, OVCAR-3, HCC-78, TOV-21G, NCI-H441) or transfected into HEK293-6e cells with pTT5-huNaPi2b (CL_#13432); also called Hu NaPi2b; hNaPi2b
T1 sequence: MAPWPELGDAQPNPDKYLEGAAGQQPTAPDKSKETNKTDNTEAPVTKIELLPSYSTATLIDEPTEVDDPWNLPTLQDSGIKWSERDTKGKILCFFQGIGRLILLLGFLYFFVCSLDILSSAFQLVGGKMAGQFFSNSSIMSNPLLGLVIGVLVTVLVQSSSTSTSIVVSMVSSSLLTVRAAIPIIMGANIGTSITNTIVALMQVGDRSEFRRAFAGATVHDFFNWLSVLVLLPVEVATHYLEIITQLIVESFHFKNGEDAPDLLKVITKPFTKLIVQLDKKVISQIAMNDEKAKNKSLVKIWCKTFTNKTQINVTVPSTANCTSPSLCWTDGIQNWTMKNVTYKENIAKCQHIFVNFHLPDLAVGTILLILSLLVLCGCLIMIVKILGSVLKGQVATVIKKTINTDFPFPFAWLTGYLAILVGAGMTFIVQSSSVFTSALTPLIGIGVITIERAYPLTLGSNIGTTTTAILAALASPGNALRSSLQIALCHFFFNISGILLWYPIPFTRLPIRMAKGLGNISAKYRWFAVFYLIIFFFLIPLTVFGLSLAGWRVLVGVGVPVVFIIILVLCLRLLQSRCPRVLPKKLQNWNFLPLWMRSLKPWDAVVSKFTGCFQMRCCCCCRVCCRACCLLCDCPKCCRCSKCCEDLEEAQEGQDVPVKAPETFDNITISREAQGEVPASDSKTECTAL

T2: cynomolgus monkey NaPi2b (cynomolgus monkey, UniProt O95436 1-690 (human entry))
T2 construct: Transfected into HEK293-6e cells (clone CL_#13433); also called Cy NaPi2b; Cyno NaPi2b
T2 chain: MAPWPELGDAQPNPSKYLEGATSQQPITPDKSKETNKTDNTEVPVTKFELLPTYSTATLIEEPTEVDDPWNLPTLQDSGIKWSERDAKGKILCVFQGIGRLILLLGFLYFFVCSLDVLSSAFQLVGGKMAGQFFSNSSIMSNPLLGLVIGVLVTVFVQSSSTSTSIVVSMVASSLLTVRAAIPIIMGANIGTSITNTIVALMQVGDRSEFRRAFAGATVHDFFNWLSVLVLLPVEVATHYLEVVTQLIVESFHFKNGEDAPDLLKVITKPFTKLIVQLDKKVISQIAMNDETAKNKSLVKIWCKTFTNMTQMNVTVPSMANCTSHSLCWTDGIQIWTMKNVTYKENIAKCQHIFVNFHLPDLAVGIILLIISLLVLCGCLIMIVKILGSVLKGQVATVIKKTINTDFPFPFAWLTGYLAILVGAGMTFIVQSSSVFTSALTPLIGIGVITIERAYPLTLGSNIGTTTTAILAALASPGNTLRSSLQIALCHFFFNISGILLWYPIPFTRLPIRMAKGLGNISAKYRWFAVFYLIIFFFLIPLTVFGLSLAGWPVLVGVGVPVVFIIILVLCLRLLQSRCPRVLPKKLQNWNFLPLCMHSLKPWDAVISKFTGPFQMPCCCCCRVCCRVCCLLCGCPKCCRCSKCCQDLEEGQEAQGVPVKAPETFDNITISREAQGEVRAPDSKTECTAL

T3: mouse NaPi2b (mouse, UniProt Q9DBP0 1-697)
T3 construct: Transfected into HEK293-6e cells (clone CL_#13476); also called Ms NaPi2b
T3 sequence: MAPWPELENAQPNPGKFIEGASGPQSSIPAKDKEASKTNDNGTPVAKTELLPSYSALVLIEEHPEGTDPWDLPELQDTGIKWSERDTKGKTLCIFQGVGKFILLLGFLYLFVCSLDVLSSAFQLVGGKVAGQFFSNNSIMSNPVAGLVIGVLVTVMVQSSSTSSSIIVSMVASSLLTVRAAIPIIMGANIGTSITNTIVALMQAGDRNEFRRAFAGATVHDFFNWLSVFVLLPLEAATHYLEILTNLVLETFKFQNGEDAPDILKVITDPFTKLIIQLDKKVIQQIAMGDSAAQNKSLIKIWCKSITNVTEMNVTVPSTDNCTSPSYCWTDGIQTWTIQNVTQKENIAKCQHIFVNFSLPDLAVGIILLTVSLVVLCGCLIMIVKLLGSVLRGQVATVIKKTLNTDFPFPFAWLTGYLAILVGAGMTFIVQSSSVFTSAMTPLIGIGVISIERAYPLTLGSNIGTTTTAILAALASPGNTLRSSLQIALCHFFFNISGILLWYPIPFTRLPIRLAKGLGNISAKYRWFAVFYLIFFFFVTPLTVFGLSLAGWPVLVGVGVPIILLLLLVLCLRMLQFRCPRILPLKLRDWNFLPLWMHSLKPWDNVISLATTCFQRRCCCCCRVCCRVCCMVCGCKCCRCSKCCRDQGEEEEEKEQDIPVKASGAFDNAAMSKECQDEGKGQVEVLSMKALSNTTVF

T4: human sodium-dependent phosphate transporter 2B (NaPi2b) (human, UniProt O95436 1-690)
T4 construct: UniProt ID is given as 095436 [sic]; also called hNaPi2b; Hu NaPi2b
T4 sequence: T1 sequence

B1: humanized anti-NaPi2b antibody variant v38591 (antibody, human IgG1, kappa)
heavy: not shown
light: DVQMTQSPSSLSASVGDRVTITCRASQDVYSYLNWYQQKPGKAVKLLIYYTSRLQSGVPSRFSGSGSGTDYTLTISSLQPEDFATYYCQQYNIFPWTFGQGTKLEIKRTVAAPSVFIFPPSDEQLKSGTASVVCLLNNFYPREAKVQWKVDNALQSGNSQESVTEQDSKDSTYSLSSTLTLSKADYEKHKVYACEVTHQGLSSPVTKSFNRGEC
notes: Human IgG1/kappa, full-size antibody; same as v29456 but the heavy chains include a C-terminal lysine; also called v38591 (H1L2); v38591 wild-type Fc
B2: v18992 (MX35) (antibody, human IgG1, kappa)
heavy 1: GQVQLVQSGAEVVKPGASVKMSCKASGYTFTGYNIHWVKQAPGQGLEWIGAIYPGNGDTSYKQKFRGRATLTADTSTSTVYMELSSLRSEDSAVYYCARGETARATFAYWGQGTLVTVSSASTKGPSVFPLAPSSKSTSGGTAALGCLVKDYFPEPVTVSWNSGALTSGVHTFPAVLQSSGLYSLSSVVTVPSSSLGTQTYICNVNHKPSNTKVDKKVEPKSCDKTHTCPPCPAPELLGGPSVFLFPPKPKDTLMISRTPEVTCVVVDVSHEDPEVKFNWYVDGVEVHNAKTKPREEQYNSTYRVVSVLTVLHQDWLNGKEYKCKVSNKALPAPIEKTISKAKGQPREPQVYVYPPSRDELTKNQVSLTCLVKGFYPSDIAVEWESNGQPENNYKTTPPVLDSDGSFALVSKLTVDKSRWQQGNVFSCSVMHEALHNHYTQKSLSLSPG
heavy 2: not shown
light: GDIQMTQSPSSLSASVGDRVTITCSASQDIGNFLNWYQQKPGKTVKVLIYYTSSLYSGVPSRFSGSGSGTDYTLTISSLQPEDFATYYCQQYSKLPLTFGQGTKLELKRTVAAPSVFIFPPSDEQLKSGTASVVCLLNNFYPREAKVQWKVDNALQSGNSQESVTEQDSKDSTYSLSSTLTLSKADYEKHKVYACEVTHQGLSSPVTKSFNRGEC
notes: Two different heavy chains (heterodimeric Fc)
B3: v18993 (lifastuzumab) (antibody, human IgG1, kappa)
heavy 1: GEVQLVESGGGLVQPGGSLRLSCAASGFSFSDFAMSWVRQAPGKGLEWVATIGRVAFHTYYPDSMKGRFTISRDNSKNTLYLQMNSLRAEDTAVYYCARHRGFDVGHFDFWGQGTLVTVSSASTKGPSVFPLAPSSKSTSGGTAALGCLVKDYFPEPVTVSWNSGALTSGVHTFPAVLQSSGLYSLSSVVTVPSSSLGTQTYICNVNHKPSNTKVDKKVEPKSCDKTHTCPPCPAPELLGGPSVFLFPPKPKDTLMISRTPEVTCVVVDVSHEDPEVKFNWYVDGVEVHNAKTKPREEQYNSTYRVVSVLTVLHQDWLNGKEYKCKVSNKALPAPIEKTISKAKGQPREPQVYVYPPSRDELTKNQVSLTCLVKGFYPSDIAVEWESNGQPENNYKTTPPVLDSDGSFALVSKLTVDKSRWQQGNVFSCSVMHEALHNHYTQKSLSLSPG
heavy 2: not shown
light: GDIQMTQSPSSLSASVGDRVTITCRSSETLVHSSGNTYLEWYQQKPGKAPKLLIYRVSNRFSGVPSRFSGSGSGTDFTLTISSLQPEDFATYYCFQGSFNPLTFGQGTKVEIKRTVAAPSVFIFPPSDEQLKSGTASVVCLLNNFYPREAKVQWKVDNALQSGNSQESVTEQDSKDSTYSLSSTLTLSKADYEKHKVYACEVTHQGLSSPVTKSFNRGEC
notes: as for B2
B4: v29814 (monovalent format of parental chimeric variant 23855) (antibody, V domains shown)
VH: QAYLQQSGAELVRPGASVKMSCKASGFTFTSYNVHWVKQTPRQGLEWIAAISPGNGDLSYNQRFKDKATLTVDRSSSTAYMQLSGLTSEDSAVYFCARGRTGMGAVDYWGQGTSVTVSS
VL: DVQMTQTASSLSASLGDRVTISCRASQDVYSYLNWYQQKPHGTVKLLIYYTSRLQSGVPSRFTGSGSGTDYSLTISNLEPEDIATYYCQQYNIFPWTFGGGTKLEIK
notes: Monovalent format; VH and VL are those of v23855; also called parental chimeric monovalent antibody variant
B5: v36124 (monovalent format of humanized antibody variant 29456) (antibody, V domains shown)
VH: QVQLVQSGAEVKKPGASVKVSCKASGFTFTSYNVHWVRQAPGQGLEWMGAISPGNGDLSYAQKFQGRVTMTRDTSTSTVYMELSSLRSEDTAVYYCARGRTGMGAVDYWGQGTLVTVSS
VL: DVQMTQSPSSLSASVGDRVTITCRASQDVYSYLNWYQQKPGKAVKLLIYYTSRLQSGVPSRFSGSGSGTDYTLTISSLQPEDFATYYCQQYNIFPWTFGQGTKLEIK
notes: Monovalent format; rest of the construct not described; also called VH1/VL2

Columns and labels:
[1] = molecular target: T1, human sodium-dependent phosphate …; experiment: flow cytometry on HEK293-6e cells transfected with human NaPi2b
[2] = molecular target: T2, cynomolgus monkey NaPi2b; experiment: flow cytometry on HEK293-6e cells transfected with cynomolgus NaPi2b
[3] = molecular target: T3, mouse NaPi2b; experiment: flow cytometry on HEK293-6e cells transfected with mouse NaPi2b
[4] = molecular target: T2, cynomolgus monkey NaPi2b; experiment: flow cytometry on HEK293-6e cells transfected with cynomolgus NaPi2b, apparent Kd
[5] = molecular target: T1, human sodium-dependent phosphate …; experiment: flow cytometry on HEK293-6e cells transfected with human NaPi2b, apparent Kd
[6] = molecular target: T1, human sodium-dependent phosphate …; experiment: flow cytometry on OVCAR-3 cells, 24 h at 4 C, anti-human IgG Fc AF647
[7] = molecular target: T3, mouse NaPi2b; experiment: flow cytometry on HEK293-6e cells transfected with mouse NaPi2b, apparent Kd
[8] = molecular target: T1, human sodium-dependent phosphate …; experiment: cell-based or functional assay
[9] = molecular target: T1, human sodium-dependent phosphate …; experiment: flow cytometry on HEK293-6e cells transfected with human NaPi2b; remark: listed apart in the source
[10] = molecular target: T1, human sodium-dependent phosphate …; experiment: flow cytometry on HEK293-6e cells transfected with human NaPi2b, apparent Kd; remark: listed apart in the source
[11] = molecular target: T1, human sodium-dependent phosphate …; experiment: flow cytometry on IGROV-1 cells, 24 h at 4 C, anti-human IgG Fc AF647
[12] = molecular target: T4, human sodium-dependent phosphate …; experiment: KinExA, monovalent antibody, IGROV-1 cells (endogenous NaPi2b) as titrant, N-curve analysis

Binder	Bmax [1]	Bmax [2]	Bmax [3]	Kd [4]	Kd [5]	Bmax [6]	Kd [6]	Kd [7]	Internalized Fluorescence in OVCAR-3, 15 min, 100 nM [8]	Internalized Fluorescence in OVCAR-3, 4 hr, 100 nM [8]	Internalized Fluorescence in OVCAR-3, 16 hr, 100 nM [8]	Internalized Fluorescence in OVCAR-3, 24 hr, 100 nM [8]	Bmax [9]	Kd [10]	Bmax [11]	Kd [11]	Kd [12]
B1	651	429	385	0.27 nM	1.68 nM	15100	2.8 nM	0.29 nM	7620	16600	24300	32400	651	1.68 nM	22200	1.67 nM	–
B2	548	378	379	0.67 nM	1.51 nM	14500	3.03 nM	0.35 nM	6650	16100	18600	28600	548	1.51 nM	21400	1.49 nM	–
B3	678	424	–	4.71 nM	5.76 nM	14500	5.79 nM	–	2480	8750	8600	13900	678	5.76 nM	20000	2.69 nM	–
B4	–	–	–	–	–	–	–	–	–	–	–	–	–	–	–	–	0.15 nM
B5	–	–	–	–	–	–	–	–	–	–	–	–	–	–	–	–	0.283 nM
